Earlier results as cited in paper PMC3114466.
Values joined by “and” are separate entries in the source; they are usually repeats but may differ in a detail not shown here. Equal entries are not always repeated.

System: His
Details: free model compound in solution (inferred)

Substance: Capped histidine model compound (acetyl-histidine-methylamide) (synthetic)
- pKa: 6.42 and 6.92 and 6.53
